Data on 14 variants can be found in PMC4215112.

To fix the notation:
B1: Bet v 1.0101 peptide I56 to D69 [modified: biotin at the N-terminus, before the additional glycine; biotin at the N-terminus, before the additional glycine] [birch] / M0418 scFv-Fcε fusion protein [human] (parent)
chain 1: QVQLVQSGAEVKKPGESLKISCKGSEYSFPNYWIAWVRQMPGKGLEWMGMIYPGDSDTRYSPSFQGQVNISADKSSRTAFLEWSSLKASDSATYFCARLGGQLWNSYYYYYYMDVWGKGTTVTVSSGGGGSGGGGSGGGGSSYELTQPPSASGTPGQRVTISCSGSSSNIGGNTVNWYQQVPGTAPRLLIYKNNQRPSGVPDRFSGSKSGTSASLAISGLRSEDEADYYCEAWDGGLRGGVFGGGTKLTVLGDYKDDDDKAAA
chain 2: GISFPEGFPFKYVKDG

The assay covers variants of B1. Briefly: ELISA. As to conditions: with M0418 scFv-Fcε fusion protein [human], read off a plot. (ELISA stands for enzyme-linked immunosorbent assay.)

For the variant chain 2 K14A, the screen value was -0% (10X dilution) and -0% (100X dilution).

On to chain 2 K11A, for which the screen value came to 95% (10X dilution) and 98% (100X dilution).

As for chain 2 P5A, the screen value runs as follows: (10X dilution) 96%; (100X dilution) 98%.

In the case of chain 2 D15A, the screen value by setting is: (10X dilution) -0%; (100X dilution) -0%.

On to chain 2 I2A, for which the screen value reads like this: (10X dilution) 5%; (100X dilution) 76%.

Turning to chain 2 F10A, the screen value (10X dilution) was -0% and the screen value (100X dilution) was found to be 38%.

For chain 2 G7A, the screen value runs as follows: (10X dilution) 43%; (100X dilution) 83%.

As to chain 2 F4A, the screen value is -0% (10X dilution) and 37% (100X dilution).

With chain 2 P9A, the screen value reads like this: (10X dilution) 95%; (100X dilution) 98%.

On to chain 2 F8A, for which the screen value by setting is: (10X dilution) 95%; (100X dilution) 98%.

As for chain 2 E6A, the screen value (10X dilution) is -0% and the screen value (100X dilution) was found to be 14%.

Consider chain 2 Y12A, for which the screen value worked out at 3% (10X dilution) and 79% (100X dilution).

In the case of chain 2 S3A, the screen value was -0% (10X dilution) and 9% (100X dilution).

Regarding chain 2 V13A, the screen value by setting is: (10X dilution) -0%; (100X dilution) -0%.
